Source: article PMC6791878 (2019)
Read-outs that look alike come from different tables or passages of the source. Where no end group is shown, it is not given here.

B1: Recombinant human integrin αvβ6 (complex)
chain 1: FNLDVDSPAEYSGPEGSYFGFAVDFFVPSASSRMFLLVGAPKANTTQPGIVEGGQVLKCDWSSTRRCQPIEFDATGNRDYAKDDPLEFKSHQWFGASVRSKQDKILACAPLYHWRTEMKQEREPVGTCFLQDGTKTVEYAPCRSQDIDADGQGFCQGGFSIDFTKADRVLLGGPGSFYWQGQLISDQVAEIVSKYDPNVYSIKYNNQLATRTAQAIFDDSYLGYSVAVGDFNGDGIDDFVSGVPRAARTLGMVYIYDGKNMSSLYNFTGEQMAAYFGFSVAATDINGDDYADVFIGAPLFMDRGSDGKLQEVGQVSVSLQRASGDFQTTKLNGFEVFARFGSAIAPLGDLDQDGFNDIAIAAPYGGEDKKGIVYIFNGRSTGLNAVPSQILEGQWAARSMPPSFGYSMKGATDIDKNGYPDLIVGAFGVDRAILYRARPVITVNAGLEVYPSILNQDNKTCSLPGTALKVSCFNVRFCLKADGKGVLPRKLNFQVELLLDKLKQKGAIRRALFLYSRSPSHSKNMTISRGGLMQCEELIAYLRDESEFRDKLTPITIFMEYRLDYRTAADTTGLQPILNQFTPANISRQAHILLDCGEDNVCKPKLEVSVDSDQKKIYIGDDNPLTLIVKAQNQGEGAYEAELIVSIPLQADFIGVVRNNEALARLSCAFKTENQTRQVVCDLGNPMKAGTQLLAGLRFSVHQQSEMDTSVKFDLQIQSSNLFDKVSPVVSHKVDLAVLAAVEIRGVSSPDHVFLPIPNWEHKENPETEEDVGPVVQHIYELRNNGPSSFSKAMLHLQWPYKYNNNTLLYILHYDIDGPMNCTSDMEINPLRIKISSLQTTEKNDTVAGQGERDHLITKRDLALSEGDIHTLGCGVAQCLKIVCQVGRLDRGKSAILYVKSLLWTETFMNKENQNHSYSLKSSASFNVIEFPYKNLPIEDITNSTLVTTNVTWGIQPAPMPV
chain 2: GCALGGAETCEDCLLIGPQCAWCAQENFTHPSGVGERCDTPANLLAKGCQLNFIENPVSQVEILKNKPLSVGRQKNSSDIVQIAPQSLILKLRPGGAQTLQVHVRQTEDYPVDLYYLMDLSASMDDDLNTIKELGSRLSKEMSKLTSNFRLGFGSFVEKPVSPFVKTTPEEIANPCSSIPYFCLPTFGFKHILPLTNDAERFNEIVKNQKISANIDTPEGGFDAIMQAAVCKEKIGWRNDSLHLLVFVSDADSHFGMDSKLAGIVIPNDGLCHLDSKNEYSMSTVLEYPTIGQLIDKLVQNNVLLIFAVTQEQVHLYENYAKLIPGATVGLLQKDSGNILQLIISAYEELRSEVELEVLGDTEGLNLSFTAICNNGTLFQHQKKCSHMKVGDTASFSVTVNIPHCERRSRHIIIKPVGLGDALELLVSPECNCDCQKEVEVNSSKCHHGNGSFQCGVCACHPGHMGPRCECGEDMLSTDSCKEAPDHPSCSGRGDCYCGQCICHLSPYGNIYGPYCQCDNFSCVRHKGLLCGGNGDCDCGECVCRSGWTGEYCNCTTSTDSCVSEDGVLCSGRGDCVCGKCVCTNPGASGPTCERCPTCGDPCNSKRSCIECHLSAAGQAREECVDKCKLAGATISEEEDFSKDGSVSCSLQGENECLITFLITTDNEGKTIIHSINEKDCPKPPNIP

Columns and labels:
[1] = target: B1; assay: FACS; competition with yeast-displayed R01-MG
R01-MW = assay: FACS
[2] = target: B1; assay: FACS; competition with yeast-displayed R01-MG

| Binder | IC50 [1] [nM] | further results |
| --- | --- | --- |
| GCILNGRTDLGTLLFRCRRDSDCPGACICRGNGYCG-NH2 (designed binder, disulfide (positions not given here)) [R01-MG synthetic cystine knot peptide (unlabeled precursor)] | 0.383 | – |
| {(19F)fluoropropyl}-GCILNGRTDLGTLLFRCRRDSDCPGACICRGNGYCG (designed binder, disulfide (positions not given here); not fully specified (C-terminus)) [[^19F]FP-R01-MG-F2] | 0.469 | – |
| B1 | – | Kd (R01-MW): 1.69 nM |
| {2‑(19F)fluoropropionyl}-GCILNGRTDLGTLLFRCRRDSDCPGACICRGNGYCG-NH2 (disulfide (positions not given here); not fully specified (bridges)) [[19F]FP-R01-MG-F1] | – | IC50 [2]: 0.541 nM |
